Test [1] concerns the target T1, recombinant human CD32A expressed on the surface of CHO cells (human, UniProt P12318 34-317).
T1 construct: whole, on cells; also called huCD32A
T1 sequence (looked up): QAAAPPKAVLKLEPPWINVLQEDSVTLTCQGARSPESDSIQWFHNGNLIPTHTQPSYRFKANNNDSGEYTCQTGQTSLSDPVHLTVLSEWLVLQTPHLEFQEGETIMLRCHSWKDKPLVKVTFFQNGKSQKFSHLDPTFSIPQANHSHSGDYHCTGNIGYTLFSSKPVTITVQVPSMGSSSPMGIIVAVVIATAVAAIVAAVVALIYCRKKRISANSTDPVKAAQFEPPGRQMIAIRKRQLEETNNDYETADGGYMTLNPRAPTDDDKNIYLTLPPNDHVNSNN
As to the kind of experiment: flow cytometry, CHO-huCD32A cells, apparent KD; SD n.a. The protocol: (§1) The CHO cells were incubated with serial dilutions of the indicated trispecific constructs and control constructs at 37° C., and cell surface bound antibodies were detected by FITC-conjugated goat anti-human IgG Fc and flow cytometric analysis. Measured median fluorescence intensity values were used to calculate apparent affinities (KD) by non-linear regression.

In test [2] the target is T2, recombinant human NKG2D expressed on the surface of CHO cells (human, UniProt P26718 1-216).
T2 construct: whole, on cells; also called huNKG2D; CD314
T2 sequence (looked up): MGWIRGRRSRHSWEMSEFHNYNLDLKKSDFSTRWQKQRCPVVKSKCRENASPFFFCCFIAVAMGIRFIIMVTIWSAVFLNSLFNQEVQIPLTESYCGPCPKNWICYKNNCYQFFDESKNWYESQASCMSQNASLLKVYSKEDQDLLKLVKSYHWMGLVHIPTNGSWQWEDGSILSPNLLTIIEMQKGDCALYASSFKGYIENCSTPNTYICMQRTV
As to the kind of experiment: flow cytometry, CHO-huNKG2D cells, apparent KD; SD 16.2. The protocol: as §1

The target in test [3] is T3, recombinant human CD64 expressed on the surface of CHO cells (human, UniProt P12314 16-374).
T3 construct: whole, on cells; also called huCD64
T3 sequence (P12314 16-374): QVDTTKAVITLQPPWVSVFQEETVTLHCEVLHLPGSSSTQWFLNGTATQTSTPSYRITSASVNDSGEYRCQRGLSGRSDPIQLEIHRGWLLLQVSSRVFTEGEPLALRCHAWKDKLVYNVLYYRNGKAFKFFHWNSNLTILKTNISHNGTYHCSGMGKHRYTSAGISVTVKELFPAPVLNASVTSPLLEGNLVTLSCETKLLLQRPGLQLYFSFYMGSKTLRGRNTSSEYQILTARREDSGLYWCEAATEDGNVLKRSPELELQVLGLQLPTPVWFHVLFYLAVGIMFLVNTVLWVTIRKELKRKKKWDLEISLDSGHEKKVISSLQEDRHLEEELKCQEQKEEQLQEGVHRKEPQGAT
The test is described as follows: flow cytometry, CHO-huCD64 cells, apparent KD; SD 7.6. The protocol:
as §1

Test [4] addresses T3, recombinant human CD64 expressed on the …. As to the kind of experiment: flow cytometry, CHO-huCD64 cells, apparent KD; SD 7.0. The method, then:
as §1

The target of test [5] is T4, recombinant human NKp46 expressed on the surface of CHO cells (human, UniProt O76036 22-304).
T4 construct: whole, on cells; also called huNKp46; CD355
T4 sequence (O76036 22-304): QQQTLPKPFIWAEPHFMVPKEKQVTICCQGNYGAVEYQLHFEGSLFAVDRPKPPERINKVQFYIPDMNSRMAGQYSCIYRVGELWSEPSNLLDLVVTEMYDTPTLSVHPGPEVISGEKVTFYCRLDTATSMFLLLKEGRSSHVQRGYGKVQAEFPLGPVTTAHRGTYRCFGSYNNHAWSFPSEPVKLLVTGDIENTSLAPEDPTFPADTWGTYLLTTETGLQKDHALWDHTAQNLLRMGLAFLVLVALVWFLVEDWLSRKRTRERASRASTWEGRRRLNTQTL
As to the kind of experiment: flow cytometry, CHO-huNKp46 cells, apparent KD; SD 6.2. The method, then: as §1

The target in test [6] is T3, recombinant human CD64 expressed on the …. The test is described as follows: flow cytometry, CHO-huCD64 cells, apparent KD; SD 2.7. The protocol: as §1
Test [7] concerns the target T4, recombinant human NKp46 expressed on …. The test is described as follows: flow cytometry, CHO-huNKp46 cells, apparent KD; SD 2.8. The method, then:
as §1

In test [8] the target is T1, recombinant human CD32A expressed on …. As to the kind of experiment: flow cytometry, CHO-huCD32A cells, apparent KD; SD 405.5. The method, then:
as §1

For test [9], the target named is T3, recombinant human CD64 expressed on the …. The test is described as follows: flow cytometry, CHO-huCD64 cells, apparent KD; SD 8.7. The method, then: as §1
Test [10] concerns the target T1, recombinant human CD32A expressed on …. As to the kind of experiment: flow cytometry, CHO-huCD32A cells, apparent KD; SD 118.9. The protocol:
as §1

Test [11] concerns the target T3, recombinant human CD64 expressed on the …. As to the kind of experiment: flow cytometry, CHO-huCD64 cells, apparent KD; SD 3.4. The method, then:
as §1

The target in test [12] is T1, recombinant human CD32A expressed on …. As to the kind of experiment: flow cytometry, CHO-huCD32A cells, apparent KD; SD 236.8. The protocol: as §1

The results in this text go back to patent US20230365709A1 (published 2023).

Numbering of substitutions follows the chain as printed.

B1: AIG-1scFv-5 (ComparatorB_1) (bispecific antibody, human IgG1, kappa)
heavy 1: not shown
light: DIVMTQSPATLSLSPGERATLSCRSSKSLQNVNGNTYLYWFQQKPGQSPQLLIYRMSNLNSGVPDRFSGSGSGTEFTLTISSLEPEDFAVYYCMQHLEYPITFGAGTKLEIKRTVAAPSVFIFPPSDEQLKSGTASVVCLLNNFYPREAKVQWKVDNALQSGNSQESVTEQDSKDSTYSLSSTLTLSKADYEKHKVYACEVTHQGLSSPVTKSFNRGEC
heavy 2: not shown
notes: CD19, wt Fc, NKG2D(KYK-2.0)
Take B1: the values for the Kd in test [1], in test [2] and in [3] were 2470 nM, 28.5 nM and 27.4 nM, respectively.

B2: 1Fab-AFc-1Fab-2 (bispecific antibody, human IgG1, kappa)
chain 1: not shown
chain 2: EVQLVESGGGLVKPGGSLKLSCAASGYTFTSYVMHWVRQAPGKGLEWIGYINPYNDGTKYNEKFQGRVTISSDKSISTAYMELSSLRSEDTAMYYCARGTYYYGTRVFDYWGQGTLVTVSSASTKGPSVFPLAPSSKSTSGGTAALGCLVKDYFPEPVTVSWNSGALTSGVHTFPAVLQSSGLYSLSSVVTVPSSSLGTQTYICNVNHKPSNTKVDKKVEPKSCDKTHTCPPCPAPELLGGPSVFLFPPKPKDTLMISRTPEVTCVVVDVSHEDPEVKFNWYVDGVEVHNAKTKPREEQYNSTYRVVSVLTVLHQDWLNGKEYKCKVSNKALPAPIEKTISKAKGQPREPQVYTLPPSREEMTKNQVSLSCAVKGFYPSDIAVEWESNGQPENNYKTTPPVLDSDGSFFLVSKLTVDKSRWQQGNVFSCSVMHEALHNHYTQKSLSLSPGSTGSEVQLQQSGPELVKPGASVKISCKTSGYTFTEYTMHWVKQSHGKSLEWIGGISPNIGGTSYNQKFKGKATLTVDKSSSTAYMELRSLTSEDSAVYYCARRGGSFDYWGQGTTLTVSSRTVAAPSVFIFPPSDEQLKSGTASVVCLLNNFYPREAKVQWKVDNALQSGNSQESVTEQDSKDSTYSLSSTLTLSKADYEKHKVYACEVTHQGLSSPVTKSFNRGEC
chain 3: DIVMTQSPATLSVTPGDRVSLSCRASQSISDYLHWYQQKSHESPRLLIKYASQSISGIPSRFSGSGSGSDFTLSINSVEPEDVGVYYCQNGHSFPLTFGAGTKLELKASTKGPSVFPLAPSSKSTSGGTAALGCLVKDYFPEPVTVSWNSGALTSGVHTFPAVLQSSGLYSLSSVVTVPSSSLGTQTYICNVNHKPSNTKVDKKVEPKSCDKTH
notes: CD19, wt Fc, NKp46(NKp46-3); also called ComparatorA_2
B2: the results for the Kd in test [4], in test [1] and in [5] were 23.9 nM, 1150 nM and 48 nM, respectively.

B3: 1Fab-AFc-1Fab-6 (bispecific antibody, human IgG1, kappa)
chain 1: DIVMTQSPATLSLSPGERATLSCRSSKSLQNVNGNTYLYWFQQKPGQSPQLLIYRMSNLNSGVPDRFSGSGSGTEFTLTISSLEPEDFAVYYCMQHLEYPITFGAGTKLEIKRTVAAPSVFIFPPSDEQLKSGTASVVCLLNNFYPREAKVQWKVDNALQSGNSQESVTEQDSKDSTYSLSSTLTLSKADYEKHKVYACEVTHQGLSSPVTKSFNRGECDKTHTCPPCPAPELLGGPDVFLFPPKPKDTLMISRTPEVTCVVVDVSHEDPEVKFNWYVDGVEVHNAKTKPREEQYNSTYRVVSVLTVLHQDWLNGKEYKCKVSNKALPAPEEKTISKAKGQPREPQVYTLPPSREEMTKNQVSLWCLVKGFYPSDIAVEWESNGQPENNYKTTPPVLDSDGSFFLYSKLTVDKSRWQQGNVFSCSVMHEALHNHYTQKSLSLSPGK
chain 2: B2 chain 2 with S243D, I336E
chain 3: B2 chain 3
notes: CD19, Fc-enhanced Fc, NKp46(NKp46-3); also called ComparatorA_6
B3: the Kd came to 12.6 nM in test [6], 45.8 nM in test [7] and 1010 nM in test [8].

B4: 1Fab-AFc-1Fab-1 (bispecific antibody, human IgG1, kappa)
chain 1: not shown
chain 2: EVQLVESGGGLVKPGGSLKLSCAASGYTFTSYVMHWVRQAPGKGLEWIGYINPYNDGTKYNEKFQGRVTISSDKSISTAYMELSSLRSEDTAMYYCARGTYYYGTRVFDYWGQGTLVTVSSASTKGPSVFPLAPSSKSTSGGTAALGCLVKDYFPEPVTVSWNSGALTSGVHTFPAVLQSSGLYSLSSVVTVPSSSLGTQTYICNVNHKPSNTKVDKKVEPKSCDKTHTCPPCPAPELLGGPSVFLFPPKPKDTLMISRTPEVTCVVVDVSHEDPEVKFNWYVDGVEVHNAKTKPREEQYNSTYRVVSVLTVLHQDWLNGKEYKCKVSNKALPAPIEKTISKAKGQPREPQVYTLPPSREEMTKNQVSLSCAVKGFYPSDIAVEWESNGQPENNYKTTPPVLDSDGSFFLVSKLTVDKSRWQQGNVFSCSVMHEALHNHYTQKSLSLSPGSTGSQVQLQQSGPELVKPGASVKMSCKASGYTFTDYVINWGKQRSGQGLEWIGEIYPGSGTNYYNEKFKAKATLTADKSSNIAYMQLSSLTSEDSAVYFCARRGRYGLYAMDYWGQGTSVTVSSRTVAAPSVFIFPPSDEQLKSGTASVVCLLNNFYPREAKVQWKVDNALQSGNSQESVTEQDSKDSTYSLSSTLTLSKADYEKHKVYACEVTHQGLSSPVTKSFNRGEC
chain 3: DIQMTQTTSSLSASLGDRVTISCRASQDISNYLNWYQQKPDGTVKLLIYYTSRLHSGVPSRFSGSGSGTDYSLTINNLEQEDIATYFCQQGNTRPWTFGGGTKLEIKASTKGPSVFPLAPSSKSTSGGTAALGCLVKDYFPEPVTVSWNSGALTSGVHTFPAVLQSSGLYSLSSVVTVPSSSLGTQTYICNVNHKPSNTKVDKKVEPKSCDKTH
notes: CD19, wt Fc, NKp46(NKp46-1); also called ComparatorA_1
As for B4, the Kd stood at 22.7 nM in test [9] and 286 nM in test [10].

B5: 1Fab-AFc-1Fab-5 (bispecific antibody, human IgG1, kappa)
chain 1: B3 chain 1
chain 2: B4 chain 2 with S243D, I336E
chain 3: B4 chain 3
notes: CD19, Fc-enhanced Fc, NKp46(NKp46-1); also called ComparatorA_5
Take B5: the Kd in test [11] is 15.9 nM; in test [12], 1050 nM.
